Assays:
[1] = target: T1, CSF-1R-ECD-human Fc (in house) (human, UniProt P07333 20-512); assay: ELISA, coated CSF1R-ECD-hFc 1 ug/ml, anti-kappa HRP, one site specific binding fit (GraphPad Prism)
T1 construct: In-house fusion; also called CSF-1R-ECD-hFc; CSF1R-ECD-hFc; not shown: human Fc
Protocol: (§1) To know the binding affinity differences among individual antibodies, ELISA method was used. ELISA plate was coated with 1 μg/ml of CSF1R-ECD-hFc, then add assay antibodies diluted from 50 nM to 1×10⁻⁵ nM (5-10× fold dilution). Assay was measured by adding anti-kappa HRP secondary antibody (1:5000 dilution). Binding curve and KD were determined with GraphPad Prism software using one site-specific binding for nonlinear fit methods. […] This loss of avidity was recovered by back mutations, as evidenced by humanized antibodies B1-Hu, B2-Hu, B1-B1, and B2-B1 clones. (See FIG. 11 and FIG. 12).

[2] = target: T1, CSF-1R-ECD-human Fc (in house); assay: ELISA, CSF1R-ECD-hFc coated at 1 ug/ml, anti-kappa HRP, one site-specific binding fit
Protocol: as §1

[3] = target: T1, CSF-1R-ECD-human Fc (in house); assay: ELISA, coated CSF1R-ECD-hFc 1 ug/ml, anti-kappa HRP, OD450
Protocol: as §1

[4] = target: T1, CSF-1R-ECD-human Fc (in house); assay: ELISA, CSF1R-ECD-hFc coated at 1 ug/ml, anti-kappa HRP
Protocol: as §1

T1 sequence (P07333 20-512): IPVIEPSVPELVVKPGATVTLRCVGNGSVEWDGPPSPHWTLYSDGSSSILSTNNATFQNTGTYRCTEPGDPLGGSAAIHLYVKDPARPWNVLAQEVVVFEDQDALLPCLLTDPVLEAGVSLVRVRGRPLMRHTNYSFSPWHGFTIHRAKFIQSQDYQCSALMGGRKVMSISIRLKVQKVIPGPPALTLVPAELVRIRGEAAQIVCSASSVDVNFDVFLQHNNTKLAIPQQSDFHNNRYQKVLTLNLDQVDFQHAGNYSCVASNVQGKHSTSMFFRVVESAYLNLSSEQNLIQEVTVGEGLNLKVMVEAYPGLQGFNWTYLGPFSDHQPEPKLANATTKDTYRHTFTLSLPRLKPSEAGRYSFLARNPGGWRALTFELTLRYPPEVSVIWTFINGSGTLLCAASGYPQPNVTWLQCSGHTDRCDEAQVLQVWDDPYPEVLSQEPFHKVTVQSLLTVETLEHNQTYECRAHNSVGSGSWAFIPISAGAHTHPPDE

Binder | Bmax [1] | Kd [2] [nM] | other results
M-M(IgG4) (antibody, V domains shown, an IgG1 and an IgG4 form) VH: EVQLQQSGPELEKPGASVKISCKASGYSFTGYNMNWVKQSNGKSLEWIGNIDPYYGGTTYNQKFKGKATLTVDKSSSTAYMQLKSLTSEDSAVYYCARRGDYSGSSYWYFDVWGAGTTVTVSS VL: DIQMTQSSSYLSVSLGGRVTITCKASDHINNWLAWYQQKPGNAPRLLISGATSLETGVPSRFSGSGSGKDYTLSITSLQTEDVVTYYCQQYWSTPFTFGSGTKLEIK | 3.2 |  | 
AB21 M-M (mouse heavy chain variable region with mouse light chain variable region, recombinant) (antibody, V domains shown) VH: EVQLQQSGPELEKPGASVKISCKASGYSFTGYNMNWVKQSNGKSLEWIGNIDPYYGGTTYNQKFKGKATLTVDKSSSTAYMQLKSLTSEDSAVYYCARRGDYSGSSYWYFDVWGAGTTVTVSS VL: DIQMTQSSSYLSVSLGGRVTITCKASDHINNWLAWYQQKPGNAPRLLISGATSLETGVPSRFSGSGSGKDYTLSITSLQTEDVVTYYCQQYWSTPFTFGSGTKLEIK |  | 0.0936 | 
B1-Hu(IgG4) (antibody, V domains shown, an IgG1 and an IgG4 form) VH: EVQLVQSGAEVKKPGATVKISCKVSGYSFTGYNMNWVQQAPGKGLEWMGNIDPYYGGTTYNQKFKGKATLTVDKSTSTAYMELSSLRSEDTAVYYCARRGDYSGSSYWYFDVWGQGTLVTVSS VL: DIQMTQSPSSLSASVGDRVTITCKASDHINNWLAWYQQKPGKAPKLLLYGATSLETGVPSRFSGSGSGTDYTLTISSLQPEDFATYYCQQYWSTPFTFGQGTKVEIK | 3.19 |  | 
B1-Hu(IgG1) (antibody, V domains shown, an IgG1 and an IgG4 form) VH: EVQLVQSGAEVKKPGATVKISCKVSGYSFTGYNMNWVQQAPGKGLEWMGNIDPYYGGTTYNQKFKGKATLTVDKSTSTAYMELSSLRSEDTAVYYCARRGDYSGSSYWYFDVWGQGTLVTVSS VL: DIQMTQSPSSLSASVGDRVTITCKASDHINNWLAWYQQKPGKAPKLLLYGATSLETGVPSRFSGSGSGTDYTLTISSLQPEDFATYYCQQYWSTPFTFGQGTKVEIK |  |  | EC50 (read off the curve) [3]: ~0.04 nM
humanized AB21 B1-Hu (AB21 VHB1 with Hu AB21 VL) (antibody, V domains shown, Human IgG from vector pTCAE8-AB21 in FreeStyle 293 cells, kappa light chain; also called heavy chain B1 combined with light chain Hu) VH: EVQLVQSGAEVKKPGATVKISCKVSGYSFTGYNMNWVQQAPGKGLEWMGNIDPYYGGTTYNQKFKGKATLTVDKSTSTAYMELSSLRSEDTAVYYCARRGDYSGSSYWYFDVWGQGTLVTVSS VL: DIQMTQSPSSLSASVGDRVTITCKASDHINNWLAWYQQKPGKAPKLLLYGATSLETGVPSRFSGSGSGTDYTLTISSLQPEDFATYYCQQYWSTPFTFGQGTKVEIK |  | 0.0958 | 
humanized AB21 B1-B1 (AB21 VHB1 with AB21 VLB1) (antibody, V domains shown, Human IgG from vector pTCAE8-AB21 in FreeStyle 293 cells, kappa light chain; also called heavy chain B1 combined with light chain B1) VH: EVQLVQSGAEVKKPGATVKISCKVSGYSFTGYNMNWVQQAPGKGLEWMGNIDPYYGGTTYNQKFKGKATLTVDKSTSTAYMELSSLRSEDTAVYYCARRGDYSGSSYWYFDVWGQGTLVTVSS VL: DIQMTQSPSSLSASLGDRVTITCKASDHINNWLAWYQQKPGKAPKLLLSGATSLETGVPSRFSGSGSGTDYTLTISSLQPEDFATYYCQQYWSTPFTFGQGTKVEIK |  | 0.0558 | 

Second part, led by results:

Bmax [1] | Kd [2] [nM] | Binder | other results
 | 83 | humanized AB21 Hu-Hu (Hu AB21 VH with Hu AB21 VL), the initial humanized antibody (antibody, V domains shown, Human IgG from vector pTCAE8-AB21 in FreeStyle 293 cells, kappa light chain (anti-kappa HRP detection); also called heavy chain Hu combined light chain Hu) VH: EVQLVQSGAEVKKPGATVKISCKVSGYSFTGYNMNWVQQAPGKGLEWMGNIDPYYGGTTYNQKFKGRVTITADTSTDTAYMELSSLRSEDTAVYYCATRGDYSGSSYWYFDVWGQGTLVTVSS VL: DIQMTQSPSSLSASVGDRVTITCKASDHINNWLAWYQQKPGKAPKLLLYGATSLETGVPSRFSGSGSGTDYTLTISSLQPEDFATYYCQQYWSTPFTFGQGTKVEIK | fold lower affinity than the original mouse antibody (M-M) [4]: ~1000 fold
3.17 |  | humanized AB21 B2-Hu (Hu AB21 VHB2 with Hu AB21 VL) (antibody, V domains shown, Human IgG from vector pTCAE8-AB21 in FreeStyle 293 cells, kappa light chain) VH: EVQLVQSGAEVKKPGASVKISCKVSGYSFTGYNMNWVKQAPGKGLEWIGNIDPYYGGTTYNQKFKGKATLTVDKSTSTAYMELSSLRSEDTAVYYCARRGDYSGSSYWYFDVWGQGTLVTVSS VL: DIQMTQSPSSLSASVGDRVTITCKASDHINNWLAWYQQKPGKAPKLLLYGATSLETGVPSRFSGSGSGTDYTLTISSLQPEDFATYYCQQYWSTPFTFGQGTKVEIK | EC50 (read off the curve) [3]: ~0.08 nM
